The target of the assay is T1, 32-N MB.v3.
T1 construct: Self-assembled apoferritin nanocage (Multabody), plasmids co-transfected 3:1:1; monomeric IgG1 Fc chain at the C-terminus of C-ferritin, which dimerises in the particle; also called Multabody.v3; T-01 MBv2
Nature of the assay: BLI, His-tagged FcγRIIa on Ni-NTA biosensors, Multabody in solution [8f].

Consider one molecule from patent publication US20240317842A1 (HOSPITAL FOR SICK CHILDREN, published 2024).

B1: FcRIIa (receptor, human, UniProt P12318 34-217, looked up)
receptor chain: QAAAPPKAVLKLEPPWINVLQEDSVTLTCQGARSPESDSIQWFHNGNLIPTHTQPSYRFKANNNDSGEYTCQTGQTSLSDPVHLTVLSEWLVLQTPHLEFQEGETIMLRCHSWKDKPLVKVTFFQNGKSQKFSHLDPTFSIPQANHSHSGDYHCTGNIGYTLFSSKPVTITVQVPSMGSSSPMG
notes: His-tagged ligand loaded on Ni-NTA biosensors; also called FcγRIIa
With B1, the binding result is on record as “no binding”.
